Experimental data reported in publication PMC10819763, “Reconstitution of the phosphodiesterase 6 maturation process important for photoreceptor cell function” (The Journal of Biological Chemistry, 2023).
Where “and” joins values, the source holds several entries; their conditions need not be identical. Equal entries are not always repeated.

B1: human cone PDE6C (aa 1-830), expressed as an EGFP fusion protein and released with HRV-3C protease (enzyme, UniProt P51160 1-830, looked up)
chain: MGEINQVAVEKYLEENPQFAKEYFDRKLRVEVLGEIFKNSQVPVQSSMSFSELTQVEESALCLELLWTVQEEGGTPEQGVHRALQRLAHLLQADRCSMFLCRSRNGIPEVASRLLDVTPTSKFEDNLVGPDKEVVFPLDIGIVGWAAHTKKTHNVPDVKKNSHFSDFMDKQTGYVTKNLLATPIVVGKEVLAVIMAVNKVNASEFSKQDEEVFSKYLNFVSIILRLHHTSYMYNIESRRSQILMWSANKVFEELTDVERQFHKALYTVRSYLNCERYSIGLLDMTKEKEFYDEWPIKLGEVEPYKGPKTPDGREVNFYKIIDYILHGKEEIKVIPTPPADHWTLISGLPTYVAENGFICNMMNAPADEYFTFQKGPVDETGWVIKNVLSLPIVNKKEDIVGVATFYNRKDGKPFDEHDEYITETLTQFLGWSLLNTDTYDKMNKLENRKDIAQEMLMNQTKATPEEIKSILKFQEKLNVDVIDDCEEKQLVAILKEDLPDPRSAELYEFRFSDFPLTEHGLIKCGIRLFFEINVVEKFKVPVEVLTRWMYTVRKGYRAVTYHNWRHGFNVGQTMFTLLMTGRLKKYYTDLEAFAMLAAAFCHDIDHRGTNNLYQMKSTSPLARLHGSSILERHHLEYSKTLLQDESLNIFQNLNKRQFETVIHLFEVAIIATDLALYFKKRTMFQKIVDACEQMQTEEEAIKYVTVDPTKKEIIMAMMMTACDLSAITKPWEVQSQVALMVANEFWEQGDLERTVLQQQPIPMMDRNKRDELPKLQVGFIDFVCTFVYKEFSRFHKEITPMLSGLQNNRVEWKSLADEYDAKMKVIEEEA
notes: human PDE6C, cone cGMP phosphodiesterase catalytic subunit, truncation of the C-terminal 28 residues (aa 1-830); GFP and PDE6C cDNAs were spliced with primers containing the HRV-3C site and a FLAG tag, cloned into pFastBac HT A by Gibson assembly; also called EGFP-PDE6C; source: Sf9 cells (baculovirus), alone or co-expressed with AIPL1 or with AIPL1 and Pγ; purified (EGFP-nanobody resin, HRV-3C …)

Legend:
[1] = target: the molecule itself; assay: SEC; PDE6C co-expressed with AIPL1, eluted from EGFP-nanobody resin with HRV-3C, preincubated with 3 mM ATP for 10 min at 25 °C; Superose 6 10/300 GL in 10 mM HEPES pH 7.5, 150 mM NaCl, 1 mM TCEP, 2 mM MgCl2
[2] = target: B1; assay: inhibition of enzyme activity (cGMP hydrolysis); purified PDE6C (co-expressed with AIPL1) inhibited by purified recombinant Pγr; 20 mM Tris-HCl pH 7.5, 120 mM NaCl, 2 mM MgSO4, 1 mM BME, 10 μM [3H]cGMP, 25 °C; details: both partners purified
[3] = target: T1, trypsin-activated PDE6AB from mouse retina extract (mouse (endogenous in retina), UniProt P27664 1-859; P23440 1-856); assay: inhibition of enzyme activity (cGMP hydrolysis); trypsin-treated mouse retina extract inhibited by purified recombinant Pγr; 20 mM Tris-HCl pH 7.5, 120 mM NaCl, 2 mM MgSO4, 1 mM BME, 10 μM [3H]cGMP, 25 °C; details: one partner purified
T1 construct: mouse rod PDE6 catalytic subunit PDE6A, after trypsin treatment of the retina lysate; mouse rod PDE6 catalytic subunit PDE6B, after trypsin treatment of the retina lysate; Trypsin treatment degrades the endogenous Pγ; The retina extract also holds a few percent of cone PDE6C activity; also called mouse rod PDE6; source: endogenous, C57BL/J mouse retina lysate, trypsin-treated; copies: 1 + 1
T1 sequence (P27664 whole entry, chain 1 of 2): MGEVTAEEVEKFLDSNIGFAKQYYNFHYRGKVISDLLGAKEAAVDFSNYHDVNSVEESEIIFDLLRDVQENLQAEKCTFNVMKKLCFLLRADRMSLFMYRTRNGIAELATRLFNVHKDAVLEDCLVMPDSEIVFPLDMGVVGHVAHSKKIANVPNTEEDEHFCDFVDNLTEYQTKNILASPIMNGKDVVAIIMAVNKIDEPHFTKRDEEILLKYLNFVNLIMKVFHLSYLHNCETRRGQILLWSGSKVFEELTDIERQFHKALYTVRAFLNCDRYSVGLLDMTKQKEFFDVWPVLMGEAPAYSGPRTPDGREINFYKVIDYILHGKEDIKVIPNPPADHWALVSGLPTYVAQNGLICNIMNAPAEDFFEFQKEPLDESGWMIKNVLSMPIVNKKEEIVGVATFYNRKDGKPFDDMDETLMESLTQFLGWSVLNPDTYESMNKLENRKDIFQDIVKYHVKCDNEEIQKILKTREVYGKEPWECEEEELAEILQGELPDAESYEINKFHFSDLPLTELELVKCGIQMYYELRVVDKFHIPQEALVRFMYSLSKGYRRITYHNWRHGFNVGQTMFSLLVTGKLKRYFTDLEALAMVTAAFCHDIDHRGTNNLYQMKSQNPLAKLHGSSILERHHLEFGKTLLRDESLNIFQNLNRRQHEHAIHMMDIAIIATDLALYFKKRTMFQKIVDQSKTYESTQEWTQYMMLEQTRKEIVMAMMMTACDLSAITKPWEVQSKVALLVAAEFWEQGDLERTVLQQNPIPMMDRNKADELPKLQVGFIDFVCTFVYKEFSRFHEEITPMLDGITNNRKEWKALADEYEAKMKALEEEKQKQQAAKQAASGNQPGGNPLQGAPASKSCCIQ
T1 sequence (P23440 whole entry, chain 2 of 2): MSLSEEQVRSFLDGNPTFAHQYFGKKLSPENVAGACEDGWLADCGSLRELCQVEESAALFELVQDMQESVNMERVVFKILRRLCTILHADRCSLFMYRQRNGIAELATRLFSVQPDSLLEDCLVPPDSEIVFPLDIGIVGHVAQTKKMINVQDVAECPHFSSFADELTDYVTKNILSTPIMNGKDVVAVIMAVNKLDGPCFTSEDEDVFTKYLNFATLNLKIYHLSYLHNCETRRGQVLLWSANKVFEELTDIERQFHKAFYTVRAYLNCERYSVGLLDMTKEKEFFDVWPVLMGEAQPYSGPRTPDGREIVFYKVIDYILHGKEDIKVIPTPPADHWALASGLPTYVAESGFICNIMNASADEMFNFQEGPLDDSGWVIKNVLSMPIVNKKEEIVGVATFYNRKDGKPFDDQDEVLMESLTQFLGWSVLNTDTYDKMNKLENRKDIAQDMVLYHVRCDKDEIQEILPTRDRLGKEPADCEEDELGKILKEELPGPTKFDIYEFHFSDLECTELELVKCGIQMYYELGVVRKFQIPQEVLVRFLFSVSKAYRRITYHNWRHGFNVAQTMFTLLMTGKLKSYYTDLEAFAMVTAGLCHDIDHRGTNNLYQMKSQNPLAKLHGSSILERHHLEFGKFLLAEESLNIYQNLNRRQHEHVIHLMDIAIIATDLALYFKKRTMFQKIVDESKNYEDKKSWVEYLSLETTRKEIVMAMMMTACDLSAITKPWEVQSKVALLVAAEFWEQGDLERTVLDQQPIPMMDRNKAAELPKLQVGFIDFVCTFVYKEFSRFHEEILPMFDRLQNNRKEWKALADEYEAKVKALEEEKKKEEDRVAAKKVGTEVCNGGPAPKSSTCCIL

In the case of B1, the “stoichiometry N” value [1] is reported as 2.

B2: His6-tagged bovine Pγr (rod PDE6 inhibitory γ-subunit), bacterially expressed (natural protein, UniProt P04972 1-87, looked up)
chain: MNLEPPKAEIRSATRVMGGPVTPRKGPPKFKQRQTRQFKSKPPKKGVQGFGDDIPGMEGLGTDITVICPWEAFNHLELHELAQYGII
notes: also called rod Pγ; purified recombinant Pγr
In the case of B2, the Ki [2] is reported as 0.095 nM and 0.088 nM and the Ki [3] is reported as 0.089 nM.
